Experimental data published in patent US20200347131A1 (SICHUAN KELUN BIOTECH BIOPHARMACEUTICAL, published 2020).
Changes are numbered by the printed parent chain.

T1: human LAG-3 (Uniport entry No. P18627) (human, UniProt P18627 23-450, limits assumed)
T1 sequence (looked up): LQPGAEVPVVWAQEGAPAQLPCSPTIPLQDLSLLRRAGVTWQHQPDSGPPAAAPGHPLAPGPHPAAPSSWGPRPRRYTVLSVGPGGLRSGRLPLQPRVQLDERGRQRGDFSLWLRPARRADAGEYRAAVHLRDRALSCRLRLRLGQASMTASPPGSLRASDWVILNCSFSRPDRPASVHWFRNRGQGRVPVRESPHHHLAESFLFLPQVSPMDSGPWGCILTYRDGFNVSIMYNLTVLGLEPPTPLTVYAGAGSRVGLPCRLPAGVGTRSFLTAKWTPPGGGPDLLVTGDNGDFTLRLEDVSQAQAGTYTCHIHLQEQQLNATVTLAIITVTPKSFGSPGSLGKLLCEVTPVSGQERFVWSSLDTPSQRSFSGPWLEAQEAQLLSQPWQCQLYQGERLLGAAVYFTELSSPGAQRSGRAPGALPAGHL

T2: human LAG-3 (His tag) (human, UniProt P18627 23-450, limits assumed)
T2 construct: also called LAG-3-His antigen; not shown: His tag
T2 sequence (looked up): T1 sequence (looked up)

T3: human LAG-3 on CHO cells (CHO-hLAG-3) (human, UniProt P18627 23-525)
T3 construct: whole, on cells; Cells prepared by Kelun Biotech Co., Ltd; also called CHO cells expressing human LAG-3
T3 sequence (looked up): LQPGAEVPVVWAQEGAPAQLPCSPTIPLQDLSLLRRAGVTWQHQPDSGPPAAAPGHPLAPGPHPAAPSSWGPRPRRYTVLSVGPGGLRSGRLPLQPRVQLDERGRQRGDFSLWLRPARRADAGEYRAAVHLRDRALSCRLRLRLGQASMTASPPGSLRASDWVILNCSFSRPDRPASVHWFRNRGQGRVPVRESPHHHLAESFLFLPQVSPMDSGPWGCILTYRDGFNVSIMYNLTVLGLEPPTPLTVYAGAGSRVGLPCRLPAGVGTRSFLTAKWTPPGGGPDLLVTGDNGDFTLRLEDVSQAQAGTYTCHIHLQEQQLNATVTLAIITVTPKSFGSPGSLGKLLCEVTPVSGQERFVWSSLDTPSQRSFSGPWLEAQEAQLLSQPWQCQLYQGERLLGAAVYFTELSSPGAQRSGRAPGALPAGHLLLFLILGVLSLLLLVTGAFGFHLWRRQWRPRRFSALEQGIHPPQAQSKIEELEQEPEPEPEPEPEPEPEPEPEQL

B1: murine monoclonal antibody #27 (antibody, IgG4, V domains shown)
VH: DVHLQESGPDLVKPSQSLSLTCTVTGYSITSFYSWHWIRQFPGNKLEWMGCIQYSGDTDSNPSLKSRISITRDTSENQLFLHLNSVTTEDTATYYCARSPYDSDPYYVMDYWGQGTSVTVSS
VL: DIVMSQSPSSLAVSVGEKITMTCKSSQSLLYSGNQKNYLAWYQQKPGQSPTLLIYWASTRDSGVPDRLTGSGSGTDFTLTISSVKAEDLAVYYCQQYYAYPYTFGGGTKLETK
notes: Purified from hybridoma supernatant; also called murine antibody #27; monoclonal antibody produced by hybridoma cell line #27 (CCTCC NO.C2017183)
B2: human-mouse chimeric antibody AB12T2 (antibody, human IgG4 S228P, kappa, V domains shown)
VH: B1 VH
VL: DIVMSQSPSSLAVSVGEKITMTCKSSQSLLYSGNQKNYLAWYQQKPGQSPTLLIYWASTRDSGVPDRLTGSGSGTDFTLTISSVKAEDLAVYYCQQYYAYPYTFGGGTKLETKR
B3: humanized antibody AB12T3 (antibody, human IgG4, kappa, V domains shown)
VH: DVQLQESGPGLVKPSQTLSLTCTVTGYSITSFYSWHWIRQHPGKGLEWMGCIQYSGDTDSNPSLKSRITITRDTSENQLSLKLSSVTAADTAVYYCARSPYDSDPYYVMDYWGQGTLVTVSS
VL: DIVMSQSPDSLAVSLGERATITCKSSQSLLYSGNQKNYLAWYQQKPGQPPTLLIYWASTRDSGVPDRLTGSGSGTDFTLTISSLQAEDVAVYYCQQYYAYPYTFGQGTKLEIKR
B4: humanized antibody AB12T5 (antibody, human IgG4, kappa, V domains shown)
VH: B3 VH with D1Q, T25S, M49I, I68V, T71S, R72V, E76K, L79F, L117S
VL: B3 VL with S5T, T51K, L68F, T69S, Q106G
B5: humanized antibody AB12T7 (antibody, human IgG4, kappa, V domains shown)
VH: QVQLQESGPGLVKPSQTLSLTCTVSGYSITSFYSWSWIRQHPGKGLEWIGYIQYSGDTYYNPSLKSRVTISVDTSKNQFSLKLSSVTAADTAVYYCARSPYDSDPYYVMDYWGQGTLVTVSS
VL: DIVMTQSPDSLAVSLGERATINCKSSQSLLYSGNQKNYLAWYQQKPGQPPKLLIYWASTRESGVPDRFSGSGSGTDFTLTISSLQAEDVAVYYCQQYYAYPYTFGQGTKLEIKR
B6: humanized antibody AB12T6 (antibody, human IgG4, kappa, V domains shown)
VH: B5 VH with Q1D, T17S, S36H, I49M, Y51C
VL: B3 VL with T51K, L68F, T69S, Q106G, I112T
B7: humanized antibody AB12T4 (antibody, human IgG4 S228P, kappa, V domains shown)
VH: B3 VH with H41F, S80F, V93T
VL: B3 VL with A19I, I21M, P49S, L84V
notes: also called FITC-AB12T4
B8: reference antibody AB12T1 (BMS 986016) (antibody, human IgG4 S228P, kappa, V domains shown)
VH: QVQLQQWGAGLLKPSETLSLTCAVYGGSFSDYYWNWIRQPPGKGLEWIGEINHRGSTNSNPSLKSRVTLSLDTSKNQFSLKLRSVTAADTAVYYCAFGYSDYEYNWFDPWGQGTLVTVSS
VL: EIVLTQSPATLSLSPGERATLSCRASQSISSYLAWYQQKPGQAPRLLIYDASNRATGIPARFSGSGSGTDFTLTISSLEPEDFAVYYCQQRSNWPLTFGQGTNLEIKR
notes: also called positive control antibody AB; FITC-AB12T1

Columns and labels:
[1] = target: T1, human LAG-3 (Uniport entry No. P18627); assay: indirect ELISA on plate-coated human LAG-3 (0.1 ug/ml), HRP goat anti-mouse IgG detection
human LAG-3 (His tag) [2] = target: T2, human LAG-3 (His tag); assay: BLI (ForteBio Octet), LAG-3 His on Ni-NTA sensor
Method: (§1) The binding affinity constant of the purified murine monoclonal antibody #27 to the antigen was determined by Bio-Layer Interferometry (BLI) using the instrument of a PALL company's ForteBio Octet RED & QK system.

human LAG-3 (His tag) [3] = target: T2, human LAG-3 (His tag); assay: FACS competition, antibody blocks the binding of LAG-3-His (12 ug/mL) to MHC II positive A431 cells
Method: Human epidermal cancer cell line A431 (purchased from Nanjing Cobioer Company) is an MHC II positive expression cell line. […] The method was also used to evaluate the biological activity of relevant antibodies.
A431 cells were trypsinized, resuspended in PBS, and the cell density was adjusted to 5×10⁶ cells/mL, 100 μL/well. […] The cells were washed twice with pre-cooled PBS, resuspended in 100 µL of solution containing […] of PE anti-His, and incubated at 4° C. for 0.5 hours, washed twice with pre-cooled PBS, and resuspended in PBS.

human LAG-3 (His tag) [4] = target: T2, human LAG-3 (His tag); assay: BLI (ForteBio Octet), LAG-3 His on Ni-NTA sensor, antibody 3.125-100 nM
Method: as §1

[5] = target: T4, LAG-3-Tag1 of the LAG-3/MHC II kit (CISBIO, ADK000CLAPEF) (human, UniProt P18627 23-450); assay: HTRF competition, antibody blocks the binding of LAG-3-Tag1 to MHC II-Tag2 (CISBIO kit)
T4 construct: Kit reagent; The construct is not described
Method: Anti-Tag1-Eu³⁺ is a donor of HTRF (Homogeneous Time-Resolved Fluorescence), and anti-Tag2-XL665 acts as a receptor for HTRF. When the two molecules are close to each other, the fluorescence energy is transferred from the donor to the acceptor, accompanied by appearance of a fluorescent signal at 650 nm.
After mixing the anti-Tag1-Eu³⁺ and anti-Tag2-XL665 in equal volumes, each well was added with 10 μl, mixed well, sealed with a film, and incubated for 1 hour at room temperature.

[6] = target: T3, human LAG-3 on CHO cells (CHO-hLAG-3); assay: flow cytometry, FITC-labelled antibody on CHO-hLAG-3 cells
Method: (§2) 5×10⁵ cells per tube of CHO-cynoLAG-3 and CHO-hLAG-3 cells were taken respectively. […] The dilutions were mixed with cells at a ratio of 1:1, and incubated for 30 minutes at room temperature, followed by washing 3 times with pre-cooled PBS and detection by flow cytometry (Benckman, model CytoFlex). The signal values were input into GraphPad Prism to calculate the EC₅₀ values.

[7] = target: T5, cynomolgus monkey LAG-3 on CHO cells (CHO-cynoLAG-3) (cynomolgus monkey); assay: flow cytometry, FITC-labelled antibody on CHO-cynoLAG-3 cells
T5 construct: whole, on cells; Cells prepared by Kelun Biotech Co., Ltd
Method: as §2

Binder | Kd (human LAG-3 (His tag) [2]) [nM] | koff (human LAG-3 (His tag) [2]) [s⁻¹] | kon (human LAG-3 (His tag) [2]) [M⁻¹ s⁻¹] | other results
B1 | 0.319 | 3.86e-05 | 121000 | EC50 (read off the curve) [1]: ~0.05 µg/mL; IC50 (human LAG-3 (His tag) [3]): 10.4 nM; Maximum inhibition % (human LAG-3 (His tag) [3]): 84.2%; Kd (human LAG-3 (His tag) [4]): 0.319 nM; koff (human LAG-3 (His tag) [4]): 3.86e-05 s⁻¹; kon (human LAG-3 (His tag) [4]): 121000 M⁻¹ s⁻¹
B2 | 0.574 | 4.97e-05 | 100000 | –
B3 | 0.546 | 5.17e-05 | 94700 | IC50 [5]: 9.45 µg/mL
B4 | 0.365 | 2.28e-05 | 92400 | –
B5 | 0.359 | 2.36e-05 | 65800 | –
B6 | 0.378 | – | – | –
B7 | 0.258 | 3.09e-05 | 120000 | EC50 [6]: 12.8 nM; IC50 [5]: 6.7 µg/mL; EC50 [7]: 803 nM; IC50 (human LAG-3 (His tag) [3]): 12.7 nM; Maximum inhibition % (human LAG-3 (His tag) [3]): 89.3%
B8 | – | – | – | EC50 [7]: 793 nM
